The values below come from PMC4943160.

Changes are numbered by the printed parent chain.

Series [1] addresses T1, rCosRC218S C218S (Campylobacter jejuni NCTC 11168) (UniProt Q0PBF4).
T1 sequence: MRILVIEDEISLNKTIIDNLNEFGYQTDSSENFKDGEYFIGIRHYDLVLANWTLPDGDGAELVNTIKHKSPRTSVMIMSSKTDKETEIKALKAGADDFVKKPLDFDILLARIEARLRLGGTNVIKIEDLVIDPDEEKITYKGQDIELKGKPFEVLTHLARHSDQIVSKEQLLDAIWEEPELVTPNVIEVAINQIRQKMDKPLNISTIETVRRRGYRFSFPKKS
As to the kind of experiment: EMSA. On the technique in general: In EMSA bound probe runs differently from free probe, usually more slowly.

Series [2] addresses T2, rCosRWT (Campylobacter jejuni NCTC 11168) (UniProt Q0PBF4).
T2 sequence: T1 sequence with S218C
As to the kind of experiment: EMSA.

Take “GCACAACACCTAAAGCTAAAATAGTATTTTTTTGAAATAATTTCATGGTTTTGCCTTGAAAAATTAAATTAAAAATTGTAATATTTATTACAGAAATTTTTGGCTAATTATATCTTAATTTTGGTTAATAAAATTATTTTTTAAGCTTTGGAGCTATTGATTCCATTTAG (double strand) [81-176 cmeABC promoter]”: in series [1], the binding result is “binds”.
With “AATCCTTGCTTGCATTTTCGAAAGTTGCCTTAGCCATTAAAGCTTGTCCGTAAGCTGAATCAACACTAGCTTTAAATTTATCTTGTTCTATAATAAATAATGTTTGTCCTTTTTTTACCTTATCTCCAGCTTTAAAAAGTTTATTTACTATTACGCCGCTAACTTGAGGTT (double strand) [cmeA internal fragment]”, in series [2], the binding entry was “no binding”.
Turning to “GCACAACACCTAAAGCTAAAATAGTATTTTTTTGAAATAATTTCATGGTTTTGCCTTGAAAAATTAAATTAAAAATTGTAATTTTTATTACAAAAATTTTTGGCTAATTATATCTTAATTTTGGTTAATAAAATTATTTTTTAAGCTTTGGAGCTATTGATTCCATTTAG (double strand) [11168 cmeABC promoter]”, the binding result in series [2] is reported as “binds”.
